Series [1] addresses T1, nLuc-AFF (6*-50* duplication, 6-aa linker AAGASS) (UniProt P03069 226-281). In words: luminescence switching.
The target of series [2] is T1, nLuc-AFF (6*-50* duplication, 6-aa …). In words: luminescence ratio L460/L520 titration.
For series [3] the target is unchanged. In words: fluorescence anisotropy.
For series [4] the target is unchanged. Description: luminescence ratio L460/L520 titration. This is another data set of the same source.

T1 sequence (P03069 226-281): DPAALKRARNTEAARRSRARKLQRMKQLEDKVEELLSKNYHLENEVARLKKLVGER

B1: NC duplex (non-consensus) (dsDNA)
DNA 1: GTTCCAGGTTAAGAAGTGCTCTCAGGGTGGCGCGGC
DNA 2: GCCGCGCCACCCTGAGAGCACTTCTTAACCTGGAAC
B1: the binding result in series [1] is recorded as “no binding”.

B2: AP-1 duplex (dsDNA)
DNA 1: AGTGGAGATGACTCATCTCGTGC
DNA 2: GCACGAGATGAGTCATCTCCACT
The term Kd denotes the equilibrium constant for the complex coming apart. With B2, the Kd in series [2] amounted to 14.3 ± 3.5 nM; in series [3] it was 11.6 ± 2.5 nM; in series [4], 37 ± 11 nM.

The values are drawn from paper PMC9046454.
